The source of these data is patent US20160333113A1 (NATIONAL CANCER CENTER, published 2016).

Assay [1] concerns the target T1, human tissue factor (hTF), purified, construct not stated (human, UniProt P13726 33-251, limits assumed).
T1 construct: The SPR and the chimeric-antibody ELISA say only 'purified hTF' / 'hTF'; also called purified hTF; human TF
Nature of the assay: SPR, Biacore 2000, antibody immobilized on CM5 chip, purified hTF in flow. On the procedure: The anti-hTF monoclonal antibodies (No. 1849 and No. 1859) were each immobilized on the surface of a Biacore CM5 chip. The CM5 chip, which had each antibody immobilized thereon, was set in a SPR device, and an antigen-containing buffer containing purified hTF was allowed to flow through its flow path. The dissociation constant between each of the antibodies and hTF was determined by this measurement system. It should be noted that the measurement conditions were as follows.
For orientation: SPR reads the build-up and loss of mass on a sensor chip optically.

Another assay concerns the target recombinant hTF (human, UniProt P13726 33-251). Nature of the assay: cell-based or functional assay.

B1: anti-hTF monoclonal antibody (No. 1859) (antibody, IgG2a, V domains shown)
VH: EVMLVESGPGLVQPSQTLSLICTVSGFSLTDYSVHWVRQPPGKGLEWVGVMWSGGTTTFNSGLKSRLSISRDTSKSQVFLKMYSLRTEDTAVYYCTRERAGSPLNWFAYWGQGTLVTVSS
VL: DIVMTQSPASLSASLEEIVTITCQASQDIGNYLSWYQQKPGKSPHLLIHSSTSLADGVPSRFSGSRSGTQYSLKINRLQVEDTGVYYCLQHYSGSRTFGGGTNLELK
notes: Rat hybridoma IgG purified on Protein G; constant regions are not
Broadly, the Kd is the equilibrium constant for the complex coming apart. Lower therefore signals a tighter complex. B1 had a Kd in assay [1] of 189 pM. The “Prolonged coagulation time ratio (prothrombin time ratio, PBS control = 1)” value with recombinant hTF is 1.22 ratio relative to PBS.

B2: anti-hTF monoclonal antibody (No. 1849) (antibody, IgG2b, V domains shown)
VH: EVQLVESGGGLVQSGRSLKLSCAASGFTFSDYNMAWIRQAPKKGLEWVAAIIYDGTRTYYRDSVRGRFTISRDNAKSTLYLQVDSLRSEDTATYYCATGDSYTNFAYWGQGTLVTVSS
VL: EIVLTQSPTTMAASPGEKVTLTCRASSSLSYMHWYQQRSGTSPKLWIYETSKLASGVPNRFSGSGSGTSFSLTIDSMETEDAATYYCQQGNSYPRTFGGGTKLELK
notes: Rat hybridoma IgG purified on Protein G; constant regions are not; also called rat anti-hTF monoclonal antibody (No. 1849)
As for B2, in assay [1], the affinity, expressed as Kd, was 91.4 pM. Besides, the “Prolonged coagulation time ratio (prothrombin time ratio, PBS control = 1)” value in the assay with recombinant hTF is 5.54 ratio relative to PBS.
